Consider three molecules from paper PMC11462610, “PpBBX32 and PpZAT5 modulate temperature-dependent and tissue-specific anthocyanin accumulation in peach fruit”.

Data set [1] addresses T1, PpZAT5 (Prunus persica, UniProt A0A251NAP4 1-283).
T1 sequence: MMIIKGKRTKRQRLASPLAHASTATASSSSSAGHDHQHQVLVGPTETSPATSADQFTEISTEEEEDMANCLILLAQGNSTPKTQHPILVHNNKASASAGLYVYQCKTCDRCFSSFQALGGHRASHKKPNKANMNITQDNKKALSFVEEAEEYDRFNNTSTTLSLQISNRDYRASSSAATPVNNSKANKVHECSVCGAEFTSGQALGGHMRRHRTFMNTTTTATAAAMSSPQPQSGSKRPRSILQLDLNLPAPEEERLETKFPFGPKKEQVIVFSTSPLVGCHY
Briefly: EMSA; LightShift Chemiluminescent EMSA kit (Thermo), biotin-labeled probes; buffer, salt, pH and temperature not stated. The note with it: protein: recombinant; tags: N-terminal His-trigger factor (pColdTF fusion); blunt. A general note: A gel shift assay detects complexes by their altered migration in electrophoresis.

The target in data set [2] is T1, PpZAT5. Briefly: EMSA; shift weakened by increasing cold probe; LightShift Chemiluminescent EMSA kit (Thermo), biotin-labeled probes; buffer, salt, pH and temperature not stated. The note with it: protein: recombinant; tags: N-terminal His-trigger factor (pColdTF fusion); label: biotin; blunt.
The target of another data set is T2, PpBBX32 (Prunus persica, UniProt A0A251PTV0 1-264).
T2 sequence: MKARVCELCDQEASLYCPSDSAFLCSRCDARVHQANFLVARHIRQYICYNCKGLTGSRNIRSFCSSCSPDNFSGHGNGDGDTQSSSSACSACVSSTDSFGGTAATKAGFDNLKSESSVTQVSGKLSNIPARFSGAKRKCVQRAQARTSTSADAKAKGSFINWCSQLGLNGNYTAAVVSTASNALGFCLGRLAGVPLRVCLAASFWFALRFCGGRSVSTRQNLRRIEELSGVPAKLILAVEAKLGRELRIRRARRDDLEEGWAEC
Described as above. The note with it: protein: recombinant; tags: N-terminal His-trigger factor (pColdTF fusion); label: biotin; blunt.

B1: proPpMYB10.1 ACT core element 7 mutant (dsDNA)
DNA 1: TCTTAGCTAGTTACCCTAGTTATCAAG
DNA 2: CTTGATAACTAGGGTAACTAGCTAAGA
Turning to B1, the binding result in the data set with PpZAT5 [1] is recorded as “no binding”.

B2: proPpMYB10.1 ACT core element 7 (dsDNA)
DNA 1: TCTTAGCTAACTGTTACTGTTATCAAG
DNA 2: CTTGATAACAGTAACAGTTAGCTAAGA
On to B2, for which the binding result in the data set with PpZAT5 [2] was “binds”.

B3: proPpMYB10.1 G-box1&2 (dsDNA)
DNA 1: CAGCTGTGATACGTGAACCACACGTGCTGACACTA
DNA 2: TAGTGTCAGCACGTGTGGTTCACGTATCACAGCTG
On to B3, for which the binding result with PpBBX32 is on record as “binds”.
